According to publication PMC11142733, “IgG hexamers initiate complement-dependent acute lung injury” (The Journal of Clinical Investigation, 2024):
Read-outs that look alike come from different tables or passages of the source.

How the values were obtained:
[1] = target: RGY-mutated 34-1-2S (RGY-hIgG1-34-1-2S) (mouse | human); assay: negative stain electron microscopy; antibody samples diluted to 0.01 mg/mL in 25 mM HEPES and 100 mM NaCl, on carbon-coated grids, stained with 0.75% uranyl formate; monomer to hexamer in solution
[2] = target: T1, D^d MHC class I monomer presenting IGPGRAFYA (mouse | ); assay: SPR
T1 chain 1: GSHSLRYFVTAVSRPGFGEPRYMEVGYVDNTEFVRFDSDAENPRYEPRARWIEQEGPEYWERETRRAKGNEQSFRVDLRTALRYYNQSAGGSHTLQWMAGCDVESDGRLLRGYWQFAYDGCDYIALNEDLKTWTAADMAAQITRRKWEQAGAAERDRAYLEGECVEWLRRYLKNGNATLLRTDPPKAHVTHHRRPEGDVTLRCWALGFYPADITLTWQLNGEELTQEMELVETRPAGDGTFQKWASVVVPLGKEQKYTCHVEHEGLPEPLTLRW
T1 chain 2: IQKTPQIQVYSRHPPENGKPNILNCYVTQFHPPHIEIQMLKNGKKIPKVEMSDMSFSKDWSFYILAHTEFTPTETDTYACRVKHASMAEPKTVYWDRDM
T1 chain 3: IGPGRAFYA

[3] = target: T2, K^d MHC class I monomer presenting VYLKTNVFL (mouse | ); assay: SPR
T2 chain 1: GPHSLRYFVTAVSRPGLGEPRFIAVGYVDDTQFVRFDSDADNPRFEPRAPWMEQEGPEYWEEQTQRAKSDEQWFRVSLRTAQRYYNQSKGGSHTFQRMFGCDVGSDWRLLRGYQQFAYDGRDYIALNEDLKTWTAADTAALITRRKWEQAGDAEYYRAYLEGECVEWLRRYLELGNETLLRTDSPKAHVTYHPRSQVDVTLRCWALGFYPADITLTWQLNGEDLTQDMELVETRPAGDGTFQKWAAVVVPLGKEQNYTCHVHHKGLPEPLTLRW
T2 chain 2: T1 chain 2
T2 chain 3: VYLKTNVFL

[4] = target: T3, K^b MHC class I monomer presenting SIINFEKL (mouse | ); assay: SPR
T3 chain 1: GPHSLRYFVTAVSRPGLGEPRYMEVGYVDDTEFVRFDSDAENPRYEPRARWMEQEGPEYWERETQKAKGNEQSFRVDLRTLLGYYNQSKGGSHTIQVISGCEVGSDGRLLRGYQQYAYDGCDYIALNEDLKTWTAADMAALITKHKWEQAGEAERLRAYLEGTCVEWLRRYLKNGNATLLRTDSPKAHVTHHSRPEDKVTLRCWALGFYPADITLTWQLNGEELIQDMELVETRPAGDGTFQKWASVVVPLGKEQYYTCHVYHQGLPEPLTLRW
T3 chain 2: T1 chain 2
T3 chain 3: SIINFEKL

[5] = target: T4, K^d MHC class I monomer presenting … (Mus musculus, H-2d haplotype (H-2Kd), UniProt P01902;P01887); assay: SPR; mAbs bound via amine coupling to SensEye G Easy2Spot sensors; serial dilutions (0.5–200 nM) of MHC class I monomers injected; in triplicate; IBIS MX96 SPR imager; conditions: both partners purified
T4 construct: mouse MHC class I heavy chain H-2K^d of the bought monomer; beta-2-microglobulin of the bought monomer; presented peptide; Soluble monomer from a supplier

[6] = target: T5, K^b MHC class I monomer presenting SIINFEKL (Mus musculus, H-2b haplotype (H-2Kb), UniProt P01901;P01887); assay: as above; conditions: both partners purified
T5 construct: mouse MHC class I heavy chain H-2K^b of the bought monomer; beta-2-microglobulin of the bought monomer; presented peptide; Soluble monomer from a supplier; also called K^b MHC class I antigen from H2^b mice; copies: + +

[7] = target: T6, D^b MHC class I monomer presenting … (Mus musculus, H-2b haplotype (H-2Db), UniProt P01899;P01887); assay: as above; conditions: both partners purified
T6 construct: mouse MHC class I heavy chain H-2D^b of the bought monomer; beta-2-microglobulin of the bought monomer; presented peptide; Soluble monomer from a supplier; copies: + +

[8] = target: T4, K^d MHC class I monomer presenting …

B1: RGY-mutated 34-1-2S (RGY-hIgG1-34-1-2S) (antibody, V domains shown)
VH: EVQLQQSGAEFVRPGASVKLSCTASGFNLKDDYMFWVKQRPEQGLEWIGWIAPDNGDTEYASKFQGKATITADTSSNTAYVQLSSLTSEDTAVYYCTTWGYYSYVNYWGQGTTLTVSS
VL: DIQMTQSPSSLSASLGERVSLTCRASQDIGSNLNWLQQEPDGTIKRLIYATYSLDSGVPKRFSGSRSGSDYSLTISSLESEDFVDYYCLQYASSPYTFGGGTKLEIK
stoichiometry N [1]: 6

B2: MHC class I alloantibody 34-1-2S (mouse IgG2a) (antibody, V domains shown)
VH: B1 VH
VL: B1 VL
notes: heavy-chain variable region of 34-1-2S; mouse IgG2a heavy-chain constant region; light chain variable region of 34-1-2S; light-chain constant region of the mouse antibody; Mouse IgG2a; also called anti-MHC class I clone 34-1-2S; control 34-1-2S; source: bought: Bio X Cell, catalog no; BE0180
Kd [2]: 30 nM
Kd [3]: 9.1 nM
Kd [4]: 2490 nM
binding result [5]: binds
binding result [6]: binds
binding result [7]: no binding (tested: 0.5–200 nM)

B3: Kd1 (antibody, V domains shown)
VH: EVLLVESGGDLVKPGGSLKLSCAASGFTFRTYAMSWVRQTPEKRLEWVATIGDDGSYTFYPDNVKGRFTISRDNAKNNLYLQMRHLKSEDTAIYFCARDGLFAYWGQGTLVTVSA
VL: DIQMTQSPSSLSASLGGKVTITCKASQDIKKNIAWYQYKPGKGPRLLIHYTSTLQPGISSRFSGSGSGRDYSFSISNLEPEDIATYYCLQYDSLLYTFGGGTKLEIK
binding result [8]: binds
